In publication PMC9482650, “Quantitative fragmentomics allow affinity mapping of interactomes” (Nature Communications, 2022):

Tests used:
Test in all cases: holdup assay
Set-up in all cases: key: below the threshold = too weak to quantify, mostly under pKd 3.1 to 4
Conditions in all cases: plain residues with an end cap or a label only (N-terminal biotin on a linker: ado-ado)
HTRA4, P83105 = target: T1, HTRA4, P83105
T1 sequence (P83105 378-476, limits assumed, looked up): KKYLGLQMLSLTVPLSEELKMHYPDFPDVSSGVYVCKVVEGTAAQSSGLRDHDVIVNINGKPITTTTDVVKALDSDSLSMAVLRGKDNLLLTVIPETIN

Inadl_2, Q8NI35 = target: Inadl_2, Q8NI35
Sequence of Inadl_2, Q8NI35 (Q8NI35 238-335): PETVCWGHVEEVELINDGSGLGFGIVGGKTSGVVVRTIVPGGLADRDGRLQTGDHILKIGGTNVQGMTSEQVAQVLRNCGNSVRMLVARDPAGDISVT

GRASP, Q7Z6J2 = target: GRASP, Q7Z6J2
Sequence of GRASP, Q7Z6J2 (Q7Z6J2 96-193): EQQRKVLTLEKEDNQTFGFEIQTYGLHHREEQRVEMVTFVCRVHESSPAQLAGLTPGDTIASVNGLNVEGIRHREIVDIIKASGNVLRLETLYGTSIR

RAPGEF6, Q8TEU7 = target: T2, RAPGEF6, Q8TEU7
T2 sequence (Q8TEU7 525-625, limits assumed, looked up): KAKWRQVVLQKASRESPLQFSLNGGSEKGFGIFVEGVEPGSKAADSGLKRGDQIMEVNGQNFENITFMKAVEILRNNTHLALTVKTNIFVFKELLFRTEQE

HTRA1, Q92743 = target: HTRA1, Q92743
Sequence of HTRA1, Q92743 (Q92743 360-477): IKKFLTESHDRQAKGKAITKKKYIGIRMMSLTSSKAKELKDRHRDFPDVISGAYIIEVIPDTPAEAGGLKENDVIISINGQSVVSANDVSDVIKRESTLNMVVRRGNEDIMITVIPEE

NHERF2_2, Q15599 = target: NHERF2_2, Q15599
Sequence of NHERF2_2, Q15599 (Q15599 142-238): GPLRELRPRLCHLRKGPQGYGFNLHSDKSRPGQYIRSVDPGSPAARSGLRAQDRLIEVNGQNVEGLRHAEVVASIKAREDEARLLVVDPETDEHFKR

NHERF4_4, Q86UT5 = target: NHERF4_4, Q86UT5
Sequence of NHERF4_4, Q86UT5 (Q86UT5 464-550): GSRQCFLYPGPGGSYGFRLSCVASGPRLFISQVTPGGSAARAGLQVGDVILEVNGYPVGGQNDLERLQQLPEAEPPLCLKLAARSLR

MAGI3_2, Q5TCQ9 = target: MAGI3_2, Q5TCQ9
Sequence of MAGI3_2, Q5TCQ9 (Q5TCQ9 398-503): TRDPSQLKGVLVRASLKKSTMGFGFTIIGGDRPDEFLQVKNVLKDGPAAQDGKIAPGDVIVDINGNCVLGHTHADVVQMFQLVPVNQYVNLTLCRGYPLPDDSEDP

MAGI2_5, Q86UL8 = target: MAGI2_5, Q86UL8
Sequence of MAGI2_5, Q86UL8 (Q86UL8 915-1017): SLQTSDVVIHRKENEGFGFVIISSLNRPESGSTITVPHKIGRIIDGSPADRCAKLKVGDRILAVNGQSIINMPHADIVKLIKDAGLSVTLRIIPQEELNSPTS

DLG4_1, P78352 = target: DLG4_1, P78352
Sequence of DLG4_1, P78352 (P78352 62-152): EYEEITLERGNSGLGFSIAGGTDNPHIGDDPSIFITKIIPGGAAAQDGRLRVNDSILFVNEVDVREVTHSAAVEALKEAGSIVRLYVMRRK

LIMK2, P53671 = target: LIMK2, P53671
Sequence of LIMK2, P53671 (P53671 143-248): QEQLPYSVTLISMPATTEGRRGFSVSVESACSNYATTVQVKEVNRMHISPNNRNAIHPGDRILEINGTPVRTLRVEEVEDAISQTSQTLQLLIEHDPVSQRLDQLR

NHERF3_3, Q5T2W1 = target: T3, NHERF3_3, Q5T2W1
T3 sequence (Q5T2W1 238-333, limits assumed, looked up): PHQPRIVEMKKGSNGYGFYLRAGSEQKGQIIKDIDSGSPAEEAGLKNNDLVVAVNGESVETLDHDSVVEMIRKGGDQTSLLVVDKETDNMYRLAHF

LDB3, O75112 = target: LDB3, O75112
Sequence of LDB3, O75112 (O75112 1-94): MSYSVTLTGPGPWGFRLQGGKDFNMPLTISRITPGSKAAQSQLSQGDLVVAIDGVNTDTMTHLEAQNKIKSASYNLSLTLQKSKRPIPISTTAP

GRID2IP_1, A4D2P6 = target: GRID2IP_1, A4D2P6
Sequence of GRID2IP_1, A4D2P6 (A4D2P6 1-87): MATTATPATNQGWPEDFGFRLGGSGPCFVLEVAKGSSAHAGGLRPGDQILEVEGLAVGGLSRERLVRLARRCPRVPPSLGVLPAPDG

DLG2_2, Q15700 = target: DLG2_2, Q15700
Sequence of DLG2_2, Q15700 (Q15700 189-283): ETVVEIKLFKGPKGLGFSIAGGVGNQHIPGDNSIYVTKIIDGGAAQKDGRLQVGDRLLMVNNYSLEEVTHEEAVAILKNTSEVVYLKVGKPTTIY

CARD11, Q9BXL7 = target: T4, CARD11, Q9BXL7
T4 sequence (Q9BXL7 662-765, limits assumed, looked up): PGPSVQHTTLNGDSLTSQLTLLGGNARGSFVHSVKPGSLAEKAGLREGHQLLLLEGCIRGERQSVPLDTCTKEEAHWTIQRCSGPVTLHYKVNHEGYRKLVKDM

GRIP2_7, Q9C0E4 = target: GRIP2_7, Q9C0E4
Sequence of GRIP2_7, Q9C0E4 (Q9C0E4 934-1023): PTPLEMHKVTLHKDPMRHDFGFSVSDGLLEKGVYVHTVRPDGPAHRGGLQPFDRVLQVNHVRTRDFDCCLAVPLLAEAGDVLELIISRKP

GRIP1_3, Q9Y3R0 = target: T5, GRIP1_3, Q9Y3R0
T5 sequence (Q9Y3R0 247-346, limits assumed, looked up): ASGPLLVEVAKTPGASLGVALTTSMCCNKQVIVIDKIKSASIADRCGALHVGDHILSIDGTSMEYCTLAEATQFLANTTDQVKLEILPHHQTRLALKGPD

DFNB31_1, Q9P202 = target: T6, DFNB31_1, Q9P202
T6 sequence (Q9P202 135-233, limits assumed, looked up): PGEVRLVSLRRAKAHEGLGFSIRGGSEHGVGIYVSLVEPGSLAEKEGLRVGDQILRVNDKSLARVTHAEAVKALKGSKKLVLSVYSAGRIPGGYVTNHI

Inadl_6, Q8NI35 = target: Inadl_6, Q8NI35
Sequence of Inadl_6, Q8NI35 (Q8NI35 1058-1167): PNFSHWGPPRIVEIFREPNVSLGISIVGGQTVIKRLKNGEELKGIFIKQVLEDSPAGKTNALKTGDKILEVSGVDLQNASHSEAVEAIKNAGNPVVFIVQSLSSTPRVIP

MAGI2_2, Q86UL8 = target: MAGI2_2, Q86UL8
Sequence of MAGI2_2, Q86UL8 (Q86UL8 410-522): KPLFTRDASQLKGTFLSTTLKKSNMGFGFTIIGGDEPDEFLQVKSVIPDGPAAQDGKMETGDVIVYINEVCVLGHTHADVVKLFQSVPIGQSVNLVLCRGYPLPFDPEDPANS

PARD3_3, Q8TEW0 = target: PARD3_3, Q8TEW0
Sequence of PARD3_3, Q8TEW0 (Q8TEW0 582-685): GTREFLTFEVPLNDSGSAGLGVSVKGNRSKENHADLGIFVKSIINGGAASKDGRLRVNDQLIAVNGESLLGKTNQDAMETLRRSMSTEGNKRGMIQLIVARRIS

GRIP2_4, Q9C0E4 = target: GRIP2_4, Q9C0E4
Sequence of GRIP2_4, Q9C0E4 (Q9C0E4 446-548): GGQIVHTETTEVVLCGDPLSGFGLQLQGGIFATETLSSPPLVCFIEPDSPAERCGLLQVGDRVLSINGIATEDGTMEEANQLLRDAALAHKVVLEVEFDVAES

SHANK1, Q9Y566 = target: T7, SHANK1, Q9Y566
T7 sequence (Q9Y566 658-767, limits assumed, looked up): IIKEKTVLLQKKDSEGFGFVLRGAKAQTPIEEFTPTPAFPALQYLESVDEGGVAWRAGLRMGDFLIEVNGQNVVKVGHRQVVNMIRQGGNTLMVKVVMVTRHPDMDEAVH

LIN7C, Q9NUP9 = target: T8, LIN7C, Q9NUP9
T8 sequence (Q9NUP9 88-185, limits assumed, looked up): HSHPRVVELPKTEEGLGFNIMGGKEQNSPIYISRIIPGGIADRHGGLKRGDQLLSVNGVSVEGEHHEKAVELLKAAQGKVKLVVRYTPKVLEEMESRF

APBA3_1, O96018 = target: T9, APBA3_1, O96018
T9 sequence (O96018 389-490, limits assumed, looked up): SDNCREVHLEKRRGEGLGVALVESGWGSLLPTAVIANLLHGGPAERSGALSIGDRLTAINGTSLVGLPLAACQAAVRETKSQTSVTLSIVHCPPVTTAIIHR

SNX27, Q96L92 = target: SNX27, Q96L92
FRMPD2_2, Q68DX3 = target: FRMPD2_2, Q68DX3
Sequence of FRMPD2_2, Q68DX3 (Q68DX3 944-1038): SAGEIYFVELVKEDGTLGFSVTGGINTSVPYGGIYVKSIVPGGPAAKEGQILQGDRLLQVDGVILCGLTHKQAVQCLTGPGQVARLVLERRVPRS

B1: RNF130, Q86XS8 (peptide)
chain: SLNANEVEWF
- pKd (HTRA4, P83105): 3.81
- pKd (Inadl_2, Q8NI35): 4.09
- pKd (GRASP, Q7Z6J2): 4.08
- pKd (RAPGEF6, Q8TEU7): 3.61
- pKd (HTRA1, Q92743): 4.49
- pKd (NHERF2_2, Q15599): 4.56
- pKd (NHERF4_4, Q86UT5): 4.1
- pKd (MAGI3_2, Q5TCQ9): below the threshold
- pKd (MAGI2_5, Q86UL8): 3.51
- pKd (DLG4_1, P78352): below the threshold
- pKd (LIMK2, P53671): 3.5
- pKd (NHERF3_3, Q5T2W1): below the threshold
- pKd (LDB3, O75112): below the threshold
- pKd (GRID2IP_1, A4D2P6): below the threshold
- pKd (DLG2_2, Q15700): below the threshold
- pKd (CARD11, Q9BXL7): below the threshold
- pKd (GRIP2_7, Q9C0E4): 3.94
- pKd (GRIP1_3, Q9Y3R0): below the threshold
- pKd (DFNB31_1, Q9P202): below the threshold
- pKd (Inadl_6, Q8NI35): 3.57
- pKd (MAGI2_2, Q86UL8): below the threshold
- pKd (PARD3_3, Q8TEW0): 5.28
- pKd (GRIP2_4, Q9C0E4): below the threshold
- pKd (SHANK1, Q9Y566): 3.82
- pKd (LIN7C, Q9NUP9): 3.96
- pKd (APBA3_1, O96018): 3.55
- pKd (SNX27, Q96L92): 3.94
- pKd (FRMPD2_2, Q68DX3): 3.59

B2: PFKM, P08237 (peptide)
chain: TRKRSGEAAV
- pKd (HTRA4, P83105): below the threshold
- pKd (Inadl_2, Q8NI35): below the threshold
- pKd (GRASP, Q7Z6J2): below the threshold
- pKd (RAPGEF6, Q8TEU7): below the threshold
- pKd (HTRA1, Q92743): below the threshold
- pKd (NHERF2_2, Q15599): below the threshold
- pKd (NHERF4_4, Q86UT5): below the threshold
- pKd (MAGI3_2, Q5TCQ9): 4.48
- pKd (MAGI2_5, Q86UL8): below the threshold
- pKd (DLG4_1, P78352): below the threshold
- pKd (LIMK2, P53671): below the threshold
- pKd (NHERF3_3, Q5T2W1): below the threshold
- pKd (LDB3, O75112): below the threshold
- pKd (GRID2IP_1, A4D2P6): below the threshold
- pKd (DLG2_2, Q15700): 3.59
- pKd (CARD11, Q9BXL7): below the threshold
- pKd (GRIP2_7, Q9C0E4): below the threshold
- pKd (GRIP1_3, Q9Y3R0): below the threshold
- pKd (DFNB31_1, Q9P202): below the threshold
- pKd (Inadl_6, Q8NI35): below the threshold
- pKd (MAGI2_2, Q86UL8): 4.09
- pKd (PARD3_3, Q8TEW0): below the threshold
- pKd (GRIP2_4, Q9C0E4): below the threshold
- pKd (SHANK1, Q9Y566): below the threshold
- pKd (LIN7C, Q9NUP9): below the threshold
- pKd (APBA3_1, O96018): below the threshold
- pKd (SNX27, Q96L92): 3.83
- pKd (FRMPD2_2, Q68DX3): below the threshold
